B1: full-length CtMC1 complex (CtMon1-CtCcz1) (complex, Chaetomium thermophilum)
chain 1: MTQNNAPESVAAEGTVAGQQTDTTKPEPSSQPAPEPPSQVTTDFPPNNKPNDVPATEPASSSPRPTEPPAPPPPKPTIALSPLDIATLTFPDGTRGTFPAPPQTSAQSVSTPSIASGHVTPQRDTDTASITSVAGTLRGVTGTAGDLASLLAGDGLGRKSKAWRVLRAQQQACGEGSGEEGEITEIEGLGLGEGMEGFERELDNIPDTLPDDERLALWKGKLKHYLILSSAGKPIWSRHGDLSLVNSTMGVVQTIISFYEGARNPLLGFTAGKVRFVILIKGPLYFVAISRLRESDAQLRAQLEALYMQILSTLTLPILTNIFAHRPSTDLRGPLQGTESLLASLADSFTKGSPSTLLSALECLRLRKSQRQAITNIFLKSRCEELLYGLLVAGGKLVSVIRPRKHSLHPSDLQLIFNMLFESGGIKGNGGENWIPLCLPAFNNTGYLYMYVSFLDDKAPDDQNQPPESSNLDASNKNSSNTPDDDLTALILISPSREAFYALQSMRTRLVSQLLSTGYLSLIRSTALSGRPSITSILPKTPLLHFLYKSRPNVQWCMSSLSSLTPPGATATETLLARRKLMSVYEELHAALHARHAHLRVVYSTADEKEGEGLACLGWSTPAFEVYCVAPGCVGRAGMAREVNRVVQWARREEERLFILGGGVF
chain 2: MTTPVSPSPSGIIPAQLGFLAIYNPALGTTDETLEDQIVYYATASTLSQARRRHRRPRRRDRQRAQSVVKDSRPNAAGATGDSEAVAEDKDPVSKEERHERLRQIGLAQGMVEFAKSFSDGEPVDTIDTEKARVILVEVEEGWWILASIDLTRLPLPQIKTPTSSSAPPPAPNLNPLPPEPAYEYSSREVKPPSLLRADLLRAYDLFLLHHGSSLSSLLASQGRAQLVASLTRFWDHFLATWNVLLHGNPACDVFGGIKLAASGELGIGVGEEERGSGEREVLEGLVERVEGLVDVVVGRYGGPPSEKGPEEEQWLGLGGEVGEEDGAVFLGVGALDRKSLRGVVQWMEEVYVWGENAFGVGGSRAARRRRKRGAKESRVLKTGAGKKIPIGTGTGTEGKRGEAATPDMAGTPGSMDKLFSYLTLGYGTSWSLGLSGTSTPSDSDPGSVSKGMVESSESGKPRRDLSTGHFLLGLSECSEEELTSSQANPKAIFVELKPSYQHPSRKIPPEDPQPLGKVGPELPRDHTARLRPVIYVSQPFIYILLFSEITPSPSTWPTLAESLHAQLSPLQKPLLHSTSYRPERPVVETTSSSGTTTQHQIFDLVYDTETLTLQSTIPNIPDPFPYSATTPTGHSTGQQHHQQSIWTRVEALQTHAQILAILSSGRAIPTDPSSFTHLPWEEGERTCKTARGWWIVWTRVVEHSPPDAVSLHHARDDDDNDDDASCSVLGHLRSVSSSHAAGSTSSSSGSGFGLGAIPGLGGLGGWAADGATRLAQGIGIDTRRYVEGLLTSLGR
notes: Mon1 of Chaetomium thermophilum, NCBI XP_006697030; codon-optimized synthetic gene; Ccz1 of Chaetomium thermophilum, NCBI XP_006695440; The Mon1-Ccz1 heterodimer forms a dimer of heterodimers (two copies of each protein); the rows of m3 with itself mean the association of two heterodimers; also called CtMC1full; Mon1-Ccz1 complex; source: E. coli Rosetta (DE3), co-expressed, purified (glutathione …)
B2: CtCcz1, full length (Chaetomium thermophilum Ccz1) (natural protein, UniProt G0SD94 1-796, looked up)
chain: B1 chain 2
notes: Ccz1 of Chaetomium thermophilum, NCBI XP_006695440; C-terminus printed as residues 250-796; His6-SUMO cleaved with SUMO protease; source: E. coli Rosetta (DE3), co-expressed with CtMon1, purified (glutathione column, size exclusion chromatography); not shown: His6, N-terminal, cleaved; SUMO, N-terminal, cleaved

Columns and labels:
[1] = molecular target: the molecule itself; assay: SEC; gel filtration of the full-length CtMC1 complex, co-expressed in E. coli and purified on a glutathione column by GST-CtMon1, tags cleaved
[2] = molecular target: CtYpt7 wild type (Chaetomium thermophilum Ypt7) (Chaetomium thermophilum); assay: cell-based or functional assay
[3] = molecular target: T1, CtMon1, full length (Chaetomium thermophilum Mon1) (Chaetomium thermophilum, UniProt G0SGS3 1-665); assay: SEC; gel filtration of the full-length CtMC1 complex, co-expressed in E. coli and purified on a glutathione column by GST-CtMon1, tags cleaved; settings: both partners purified
T1 construct: Mon1 of Chaetomium thermophilum, NCBI XP_006697030; C-terminal domain printed as aa 486-665; GST cleaved with PreScission protease; source: E. coli Rosetta (DE3), co-expressed with CtCcz1, purified (glutathione column, size exclusion chromatography); not shown: GST, N-terminal, cleaved
T1 sequence (looked up): B1 chain 1

| Binder | stoichiometry N [1] | kcat/KM of MC1-stimulated exchange of MANT-GDP for GTP on Ypt7 (fluorescence GEF assay, 0-2.0 μM CtMC1, 25 °C) [2] [M⁻¹ s⁻¹] | stoichiometry N [3] |
| --- | --- | --- | --- |
| B1 | 2 | 21000 | – |
| B2 | – | – | 1 |
